Source: patent CN114057881A (HANGZHOU XIANZHI BIOTECHNOLOGY CO LTD, dated 2022)

Target: T1, 牛血清白蛋白 (bovine, UniProt P02769 25-607)
T1 construct: Carrier protein control, without ketamine, in the ELISA screen; also called BSA
Assay: ELISA, BSA coated at 1 μg/mL, purified antibody, HRP secondary antibody, OD450

T1 sequence (P02769 25-607 limits assumed): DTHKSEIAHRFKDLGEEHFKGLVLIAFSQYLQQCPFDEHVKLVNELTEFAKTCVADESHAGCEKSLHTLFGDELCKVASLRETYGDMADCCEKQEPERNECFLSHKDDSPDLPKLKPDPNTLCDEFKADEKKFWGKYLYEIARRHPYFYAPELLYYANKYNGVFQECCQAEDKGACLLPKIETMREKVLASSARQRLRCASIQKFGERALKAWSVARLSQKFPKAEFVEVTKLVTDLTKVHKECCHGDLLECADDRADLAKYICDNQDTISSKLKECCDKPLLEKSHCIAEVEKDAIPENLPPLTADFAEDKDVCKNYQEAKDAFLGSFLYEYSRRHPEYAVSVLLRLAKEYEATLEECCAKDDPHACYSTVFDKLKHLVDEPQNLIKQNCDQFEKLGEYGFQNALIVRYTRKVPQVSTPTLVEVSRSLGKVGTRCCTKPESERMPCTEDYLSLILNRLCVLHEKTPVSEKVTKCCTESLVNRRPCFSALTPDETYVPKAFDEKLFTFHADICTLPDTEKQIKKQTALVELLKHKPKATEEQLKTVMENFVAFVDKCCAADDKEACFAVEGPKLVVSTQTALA

Row | Binder | binding result
1 | 抗氯胺酮(KET)特异性抗体4A1 (antibody, V domains shown, also called 4A1单抗) VH: EVRLEESGGGLVQPGGSMKLSCVASGFTFSNYWMNWVRQSPEKGLEWVDEIKLKSNNYETHCVESVKGRFTISRDDSKSSVYLQMNNLRAEDTGIYYCARRGYGTYYAMDYWGQGTSVIVSS VL: DVQITQSPSYLAASPGETITINCRASKSIRKYLAWYQEKPGKTNKLLIYSGSTLRSGTPSRFSGSGSGTDFTLTISSLEPEDFAMYYCQQHNEYPYTFGGGTKLEIKR | no binding
2 | 抗氯胺酮(KET)特异性抗体6B2 (antibody, V domains shown, also called 6B2单抗) VH: EVQLQQSGAELLKPGASVKLSCTASGFNIKDTYIHWVKQRPEQGLEWIGRIDPANGHTYYDPQFQGKATLTADTSSNTAYLQLSSLTSEDSAIYYCARFGEDWGQGTLVTVSA VL: not shown | no binding
